The Kd is the free concentration of one partner at which half of the binding sites on the other are occupied at equilibrium, for simple one-to-one binding.

For one test, the target named is AGS3-TPR (1–405) (mouse). The test can be described thus: ITC; 25°C; 50 mM Tris (pH 8.0), NaCl raised to 300 mM for AGS3-TPR or AGS3-L, 1 mM EDTA; one protein (0.2 mM) injected into another (0.02 mM); one-site binding model. In general terms: ITC needs no label: the signal is the heat of the interaction.
Another test concerns the target FL-LGN (mouse). The test can be described thus: ITC; 25°C; 50 mM Tris (pH 8.0), 100 mM NaCl, 1 mM EDTA; one protein (0.2 mM) injected into another (0.02 mM); one-site binding model.
Test [1] has as its target LGN-GL1234 (483–650) (mouse). The test is described as above.
In the next test the target is FL-AGS3 (mouse). Described as above.

Chain of Gαi3⋅GDP (P08754 whole entry): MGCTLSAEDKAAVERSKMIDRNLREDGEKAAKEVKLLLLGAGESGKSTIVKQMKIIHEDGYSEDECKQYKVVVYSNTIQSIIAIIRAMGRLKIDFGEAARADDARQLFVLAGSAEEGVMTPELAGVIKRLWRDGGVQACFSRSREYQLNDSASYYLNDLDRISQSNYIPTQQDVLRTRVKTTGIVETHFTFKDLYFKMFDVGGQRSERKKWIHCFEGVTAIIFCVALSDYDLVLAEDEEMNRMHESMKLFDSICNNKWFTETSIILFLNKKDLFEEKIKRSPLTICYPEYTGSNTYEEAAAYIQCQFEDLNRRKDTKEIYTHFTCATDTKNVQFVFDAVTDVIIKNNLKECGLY

The substance “AGS3-GL1234 (470–631) (domain or fragment)” returned a Kd with AGS3-TPR (1–405) (mouse) of 170 nM.
Turning to “Gαi3⋅GDP (from UniProt P08754 1-354) (natural protein)”, the Kd with FL-LGN (mouse) turned out to be 1170 nM; with FL-AGS3 (mouse), 1600 nM. Besides, in test [1], the stoichiometry N (Gαi3⋅GDP per GoLoco domain) turned out to be 4.

(Values after PMC12151148.)
